“Also recorded” adds a separate entry of the source.
Experiments:
MCF-7 cells = assay: Cell viability assay (XTT); assay type: cell-based; details: MCF-7, Losartan alone, all concentrations used
Experimental: (§1) MCF-7, T47D and MDA-MB-231 breast cancer cells were obtained from The American Tissue Culture Collection (LGC Promochem, Teddington, UK). Rat aortic smooth muscle cells (RASMC) were developed from primary culture (Barker et al., 1996). MCF-7 cells were maintained in Minimal Essential Medium (MEM), T47D and MDA-MB-231 cells in RPMI 1640 medium, and RASMC were maintained in Dulbecco's Modified Eagle's Medium (DMEM). All media were supplemented with 2 mM L-glutamine, 10% fetal bovine serum (FBS), 50 U/ml penicillin and 0.05 mg/ml streptomycin. Cells were maintained at 37° C. in a humidified atmosphere ([…], 5% CO2).
(§2) Confluent cell monolayers were removed from tissue culture flasks using trypsin/EDTA. Cells (15×10^3 per well) were seeded into 96 well tissue culture plates containing the appropriate medium for each cell line. […] Cell viability was assessed by the ability of metabolically active cells to reduce 2,3-bis[2-Methoxy-4-nitro-5-sulphophenyl]-2H-tetrazolium-5-carboxyanilide inner salt (XTT) to the coloured formazan product. Absorbance was measured using a Multiskan Ascent microplate reader (Thermo Labsystem, Helsinki, Finland) at a wavelength of 450 nm and a reference wavelength of 630 nm. Each measurement was performed in triplicate. IC50s were calculated using a non-linear regression formula using GraphPad Prism v4.0 software (GraphPad Software Inc, San Diego Calif., USA).

T47D cells [1] = assay: Cell viability assay (XTT); assay type: cell-based; details: Homo sapiens, Losartan alone, 25 μmol/L
Experimental: as §1, §2

MDA-MB-231 cells = assay: Cell viability assay (XTT); assay type: cell-based; details: MDA-MB-231, Losartan alone, all concentrations used
Experimental: as §1, §2

T47D cells [2] = assay: Apoptosis - caspase-3/7 activity; assay type: cell-based; details: 100 nmol/L angiotensin II, 12 hours
From the text: Cells were harvested using Trypsin/EDTA and counted.

[3] = molecular target: peptide antigen EDGIKRIQDDC-biotin (from AT1-receptor N-terminal region) (Rattus norvegicus, UniProt P25095); assay: Antigen binding ELISA of scFv variants; details: for activity in ELISA compared with murine scFv (12D): FIG. 13, indirect comparison against purified IgM; for binding to peptide antigen by ELISA versus murine scFv (12D and 11B): absorbance 450 nm per mg protein/well, FIG. 12
Experimental: Enzyme-linked immunosorbant assays (ELISAs) were carried out in Maxisorp 96-well plates coated with Peptide antigen EDGIKRIQDDC-biotin (SEQ ID NO:14) (2-8 ug/ml in carbonate buffer pH 9.6) overnight at 4 or 37 C. The coated wells were blocked using 1% alkaline soluble casein (Blocking buffer) for 1 h at RT, then washed three times with PBS containing 0.1% v/v Tween 20. ScFv samples diluted between 1:1 to 1:100 in PBS-T were added and incubated for 1 h at RT before washing as before. A secondary HRP-conjugated anti-His-Tag antibody was then added (diluted 1:1000 in blocking buffer) for 1 h at RT. Wells were then washed three times in PBS-T then twice with PBS (without Tween 20). 100 μl of TMB substrate solution was added and colour was allowed to develop for 30 min, at which time 100 μl of 2M sulphuric acid was added to stop the reaction. Absorbance at 450 nm was read on a plate reading spectrophotometer. Protein concentrations were determined using an Eppendorf Biophotometer reading at 280 nm and using an extinction coefficient for the scFv of 1.7 as above.

[4] = molecular target: biotinylated peptide antigen (AT1 receptor) (Rattus norvegicus, UniProt P25095); assay: Quartz crystal microbalance binding (Attana 100); details: 9 μg/ml, 100 second injection period
Experimental: Data were obtained comparing the characteristics of binding of the scFv variants and IgM to immobilised peptide antigen using the Attana 100 Quartz Crystal Microbalance. This involved use of a streptavidin (0.1 mg/ml)-coated biotin “chip” (gold-plated quartz crystal in an Attana 100 Biosensor (Quartz crystal microbalance (QCM)) (Attana AB, Stockholm, Sweden). Peptide antigen corresponding to that sequence used to raise the original murine hybridoma, biotinylated at the C-terminus, was then run across the chip at a concentration of 4 μg/ml to create a binding target for scFvs and IgM that were subsequently run across the surface of the QCM chip. Attester software (Attana, Sweden) was used to monitor changes in resonance frequency of the QCM chip in response to binding of a test antibody to the antigen. The magnitude of deflection in Hz over the period of sample injection of 100 s in Hz/second was determined for each antibody at a concentration of 9 μg/ml. The rate at which the antibody was then released from the QCM chip was also measured in Hz/second from the straight-line portion of the biosensor trace as antibody gradually departed from the chip and as the resonance frequency of the chip decreased. Running buffer was PBS containing 0.005% Tween 20 (PBST) and this was also used to make antibody dilutions to give a final protein concentration of 9 μg/ml in each case. The Attana 100 was set up with a 50 μl injection loop and was running with a constant pump speed of 20 μl/min. Samples and PBST buffer controls were injected over 100 seconds giving a sample volume across the chip of 33 μl. 100 mM (6.6 μl volume) phosphoric acid solution was used to regenerate the strepavidin-antigen surface between individual experimental sample runs.

Molecule | activity in ELISA compared with murine scFv (12D) [3] | binding to peptide antigen by ELISA versus murine scFv (12D and 11B) [3] | change in resonance frequency (apparent on-rate, Hz/second) compared with IgM [4] | also measured
CCCCc1nc(Cl)c(CO)n1Cc1ccc(-c2ccccc2-c2nn[nH]n2)cc1 [Losartan, reference compound] |  |  |  | effect on cell survival (MCF-7 cells): unaffected; inhibition at 25 µM (T47D cells [1]): 43%; effect on cell survival (MDA-MB-231 cells): unaffected
angiotensin II (DRVYIHPF; Angiotensin-2; UniProt P01019 25-32, looked up) [peptide hormone added at 100 nmol/L in the cell assays, reference compound] |  |  |  | caspase-3/7 activity compared with untreated control (T47D cells [2]): inhibited caspase-3/7 activity
HuCY: humanised (resurfaced) variant of scFv R6313/G2, SEQ ID NO:27 (protein, HuCY) scFv: QVQLVQSGPELVKPGASVKISCKASGYSFTGYNMNWVKQAPGKSLEWIGNIDPYYGGTTYNQKFKGKATLTVDKSSSTAYMQLKSLRSEDTAVYYCAREVDYWGQGTTVTVSSGGGGSGGGGSGGGGSDIVLTQSPASLAVSLGERATISCRASKSVSTSGYSYMHWYQQKPGQPPRLLIYLVSNLESGVPDRFSGSGSGTDFTLTISSVEAEDVAVYYCQHIRELTRSEGTKLEIKR | higher activity | more strongly; also recorded: increased binding |  | 
var3: humanised variant of scFv R6313/G2, framework changes only, SEQ ID NO:28 (protein, var3) scFv: QVQLVQSGPELVKPGASVKISCKASGYSFTGYNMNWVKQAPGKGLEWIGNIDPYYGGTTYNQKFKGKATLTVDKSSSTAYMQLKSLRSEDTAVYYCAREVDYWGQGTTVTVSSGGGGSGGGGSGGGGSDIVLTQSPASLAVSLGERATISCRASKSVSTSGYSYMHWYQQKPGQPPRLLIYLVSNLESGVPDRFSGSGSGTDFTLTISSVEAEDVAVYYCQHIRELTRSEGTKLEIKR |  | more strongly; also recorded: increased binding | significantly greater increases in resonance frequency; also recorded: significantly greater changes in resonance frequency | 
var4: humanised variant of scFv R6313/G2 with two further changes in VLCDR2 (LVSDLED), SEQ ID NO:29 (protein, var4) scFv: QVQLVQSGPELVKPGASVKISCKASGYSFTGYNMNWVKQAPGKGLEWIGNIDPYYGGTTYNQKFKGKATLTVDKSSSTAYMQLKSLRSEDTAVYYCAREVDYWGQGTTVTVSSGGGGSGGGGSGGGGSDIVLTQSPASLAVSLGERATISCRASKSVSTSGYSYMHWYQQKPGQPPRLLIYLVSDLEDGVPDRFSGSGSGTDFTLTISSVEAEDVAVYYCQHIRELTRSEGTKLEIKR | higher activity | more strongly; also recorded: increased binding; also recorded: most significantly increased binding | significantly greater increases in resonance frequency; also recorded: significantly greater changes in resonance frequency | increase in binding to the antigen compared with murine scFv ([3]; ELISA, same amount and purity of scFv): 5-10 fold
